Experiments:
Assay in all cases: ITC
[1] = target: HSL3 ectodomain pre-incubated with CTNIP4^C58A.C68A(46–70)_(linear) (Arabidopsis, C58A (stands in the printed letters) | C68A (stands in the printed letters))
[2] = target: HSL3 ectodomain pre-incubated with CTNIP4^C58A(46–63) (Arabidopsis, C58A (stands in the printed letters))
[3] = target: HSL3–CTNIP4 complex (HSL3 ectodomain pre-incubated with CTNIP4(46–70)_(Cys–Cys)) (Arabidopsis, disulfide bond linking Cys58 and Cys68)
[4] = target: HSL3 ectodomain pre-incubated with CTNIP4^N60A(46–70)_(Cys–Cys) (Arabidopsis, N60A (stands in the printed letters), disulfide bond linking Cys58 and Cys68)
[5] = target: HSL3 ectodomain pre-incubated with CTNIP4^N60F(46–70)_(Cys–Cys) (Arabidopsis, N60F (stands in the printed letters), disulfide bond linking Cys58 and Cys68)

Kd [1]	Kd [2]	Kd [3]	Kd [4]	Kd [5]	Binder
2.54 µM	8.21 µM	0.458 µM			SERK1 ectodomain (residues 24–213) (domain or fragment) ASANLEGDALHTLRVTLVDPNNVLQSWDPTLVNPCTWFHVTCNNENSVIRVDLGNAELSGHLVPELGVLKNLQYLELYSNNITGPIPSNLGNLTNLVSLDLYLNSFSGPIPESLGKLSKLRFLRLNNNSLTGSIPMSLTNITTLQVLDLSNNRLSGSVPDNGSFSLFTPISFANNLDLCGPVTSHPCPGS
		0.269 µM	2.05 µM	15.1 µM	SERK3 (protein) NAEGDALSALKNSLADPNKVLQSWDATLVTPCTWFHVTCNSDNSVTRVDLGNANLSGQLVMQLGQLPNLQYLELYSNNITGTIPEQLGNLTELVSLDLYLNNLSGPIPSTLGRLKKLRFLRLNNNSLSGEIPRSLTAVLTLQVLDLSNNPLTGDIPVNGSFSLFTPISFANTKLTPLPASPPPPISPTPPSPAGS

— PMC13585564 (2026)
